Reference: article PMC6901573

What was measured:
[1] = target: Human hemoglobin A, oxidized form (methemoglobin, MetHb) (human) (UniProt P69905); experiment: SEC; tetramer to dimers; HiLoad 16/600 Superdex 75 in reaction buffer (Tris/HCl 100 mM, NaCl 150 mM, EDTA 1 mM, pH 8.0); Hb in the oxy and met forms injected at different concentrations
[2] = target: Human hemoglobin A, reduced oxygenated form (OxyHb) (human) (UniProt P69905); experiment: as above

Kd [1] | Kd [2] | Substance
520 nM |  | Human hemoglobin A, oxidized form (methemoglobin, MetHb), P69905 1-142; P68871 1-147 (complex; other documents disagree on this pair)
 | 250 nM | Human hemoglobin A, reduced oxygenated form (OxyHb), P69905 1-142; P68871 1-147 (complex; other documents disagree on this pair)
